According to the nanobody polyreactivity screen of Harvey et al. (2022):

Assay: yeast display, Sf9 membrane polyspecificity reagent, FACS + sequencing; frameworks hold sequencing errors
In short: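 Using colony PCR, genes from sorted yeast display clones were amplified, then sequenced on MiSeq at 2 × 250 and filtered by CDR length. The clones had been stained with 10% biotinylated, detergent-solubilized Sf9 membrane reagent for 1 hour at 4 °C and sorted by FACS into low and high (top ~1%) gates on anti-HA and streptavidin fluorescence. Polyreactivity labels come from the gate of origin.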

Sequence | polyreactivity (PSR sort gate)
QVQLVESGGGLVQAGGSLRLSCVASGRIIPCNAMGWYRQAPGKERELVAAISYGGGSTYYADSVKGRFTISRDNAKNTVYLQMNSLKPADTAVYYCAAASSGEYGYWGQGTQVTVSS | low polyreactivity
QVQLVESGGGLVQAGGSLRLSCVPPDLPSTLNVMGWYRQAPGKERELVAAISQRGGSTYYADSVKGRFTISRDNAKNTVYLEMNSLKPEDTAVYYCAAGPGDSGDDYWGQGTQVTVSS | low polyreactivity
QVQLVESGGGLVQAGGSLRLSCYASGGTFRWYAMGWSRQAPGKERELVAAISYSGGPTYADSVKGRFTISRDNAKNTVYLQMNSLKPEDTAVYYCNAVRYITHYDYWGQGTQVTVSS | high polyreactivity
QVQLVESGGGLVQAGGSLRLSCYASGRTFAGYVMGWYRQAHGKERELVAAINASGGSTYYADSVKGRFTISRDNAKNTVYLQMNSLKPEDTAVYYCAAARLGSDITRRYYYWGQGTQVTVSS | high polyreactivity
QVQLVESGGGLVQAGGSLRLSFAASGFTFRYYVMGWYRQAPGKERELVASISRGGSTTNYADSVKGRFTISRDNAKNTVFLQMNSLKPEDTAVYDCNVVITPGYSYDISRGEGYWGQGTQVTVSS | high polyreactivity
QVQLVESGGGLVQAGGSLRLSFAASGHTFRYYAMGWYRQAPGKERELVAAITGGGGSTYYADSVKGRFTISRDNAKNTVYFQMNSLKPEDTAVYYCATGGVSGMVGGDYWGQGTQVTVSS | low polyreactivity
QVQLVESGGGLVQAGGSLRLSFAASGITFSSYAMGLYRQAPGKERELVARISTDADTYYADSVKGRFTISRDNAKNTVYLQMNSLKPEDTAVYYCAAEDYWDFDYWGQGTQVTVSS | low polyreactivity
QVQLVESGGGLVQAGGSLRLSFAASGLNFRVYAMGWYTQAPGTERELVAAISRGGSTYYADSVKGRFTISRDNAKNTVYLQMNSLKPEDTAVYYCAAVFVHRGYYYWGQGTQVTVSS | high polyreactivity
QVQLVESGGGLVQAGGSLRLSFAASGNTFVSNAMGWYRQAPGKERELVAAISGRGGRTYYADSVKGRFTISRDIAKDTVYLQMNSLKPEDTAVYYCDADQYKDFDYWGQGTLVTVSS | low polyreactivity
QVQLVESGGGLVQAGGSLRLSFAASGRIFGENAMGWYRQAPGKEREFVAVISISDASTYYADSVKGRFTLSRDNAKNTVYLQMNSLKPEDTAVYYWAADLTDFLYVASDYWGQGTQVTVSS | low polyreactivity
QVQLVESGGGLVQAGGSLRLSFAASGRIFGGYGMGWYRQAPGKERELVAAIDADAGSTYYADSVKGRFTISRDNAKNTVYLQLNSLKPEDTAVYYCAPVDQVAVDKHDYWGQGTQVTVSS | low polyreactivity
QVQLVESGGGLVQAGGSLRLSFAASGRIFVRYSMGWYRQAPGKERELVAAISSSGSSTYYADSVKGRFTISRDNAQNTFYLKMNCLKPEDTAVYYCAAASVRYPRYEYWGQGTQVTVSS | high polyreactivity
QVQLVESGGGLVQAGGSLRLSFAASGRIFYQYAMGWYRQAPGKERELVAAINSYGGRTYYADSVKGRFTISRDNAKYTVYLQMNSLKPEDTAVYYCAKLRVPYYAEYGYWGQGTQVTVSS | high polyreactivity
QVQLVESGGGLVQAGGSLRLSFAASGRTFYSYAMGWYRQAPGKETQLVASITSTGSTYYADSVKGRFTISRDNAKNTVYLQMNSLKPEDTAVYYCAARRQPRYSQRSTYYYWGQGTQVTVSS | high polyreactivity
QVQLVESGGGLVQAGGSLRLSFAASGSIFNYNAMGWYRQAPGKERELVAAITYADSVKGRFTISRDNAKNTVYLQMNSLKPEDTAVYHCNTHYVPSFRFDYWGQGTQVTVSS | low polyreactivity
QVQLVESGGGLVQAGGSLRLSFAASGSIFVGYAMGLYRQAPGKERELVAAISWSGDSTYYADSVKGRFTISRDNAKNTVYLQMYSLKPEDTAVPYCAVDPQQVRTLDYYVGYDYWGQGTQVTVSS | low polyreactivity
QVQLVESGGGLVQAGGSLRLSFAASGSTFSEYALGLYRQAPGKERELVAAITSSSGSTYYADSVKGRFTISRVNAKNTVYLQMNSLKPEDTAVYYCNAYYRTVYYDWGDYEYWGEGTQVTVSS | high polyreactivity
QVQLVESGGGLVQAGGSLRLSFAASGSTFSSNAMGWYRQAPGKERELVAAISVNGGSTNYADSVKGRFTISRDNAKNTVYLQMNSLKPEDTAVYYCDAEPDKVAFYRGDYWGQGTQVTVSS | low polyreactivity
QVQLVESGGGLVQAGGSLRLSFAASGSTFVIYAMGWYRQAPGTERELVAAISGRTGSTYYADSVKGRFTISRDNAKNTVYLQMNSLKPEDTAVYYCAAYKRSGLKYGHWGQGTQVTVSS | high polyreactivity
QVQLVESGGGLVQAGGSLRLSFAASGSTFVYNAMGWYRPAPGKERELVAAITVIGGRTYYADSVKGRFTISRDNAKNTVYLQMNSLKPEDTAVYYCNADATESIGYYDEYEYWGQGTQVTVSS | low polyreactivity
QVQLVESGGGLVQAGGSLRLSFAASGYIFYYNAMGWYRQAPGKERELVAAISRGGNTYYADSVKGRFTISRDNAKNTVYLQMNSLKPEDNAVYYFNARPPNKRYKYGYWGQGTQVTVSS | high polyreactivity
QVQLVESGGGLVQAGGSLRLSFASSGSTFYYNAMGWYRQAPGKERDLVARISRSGGSTYADSVKGRFTISRDNAKNTVYFQMNSLKPEDTAVSYCNADAYGTPEFTSYAVRYDYGGQGTQVTVSS | low polyreactivity

Sequence | polyreactivity (PSR sort gate)
QVQLVESGGGLVQAGGSLRLSGAASGFIFDQNAMGGYRQPPGKVRELVAAISKRGGSTYYADSVKGRFTISRDNAMNTVYLQMNSLKPEDTAVYYCARPRRSVNFYKYIYNYWGQGTLVTVSS | high polyreactivity
QVQLVESGGGLVQAGGSLRLSGAASGFNLEPNAMGWYRQAPGKERELVATISFSGGGTYYADSVKGRFTISRDNAKNTVYLQMNSLKPEDTAVYYCAADWYYYVWWYDYWGQGTQVTVSS | high polyreactivity
QVQLVESGGGLVQAGGSLRLSGAASGFTFGRNAMGGYRQAPGKEREFVAAISKSATSKYYADSVKGRFTISRDNAKNTVYLQMNSLKPEDTSVYYCARTNYAKRWDFDYWGQGTQVTVSS | low polyreactivity
QVQLVESGGGLVQAGGSLRLSGAASGRTFGVYVMGWYRQAPGKERELVAAIDDSGGSTYYADSVKGRFTISRDNAKNTVYLQMNSLKPEDTAVYYCAADFYVVYWGTYSVGYDYWGQGTQVTVSS | low polyreactivity
QVQLVESGGGLVQAGGSLRLSGAASGSIFYSNAMGWSRQAPGKERELVAAITVRGGSTYYADSVKGRFTISRDNAKNTVYLQMNSLKQEDTAVYYCAAEYVSYSSYIYGYLGQGTQVTVSS | high polyreactivity
QVQLVESGGGLVQAGGSLRLSGAASGSTFRRNAMGWSRQAPGKERELVAAISRRGGRTYYADSVKGRFTISRDNAKNTVYLQLNSLKPEDTAVYYCAADVIYSGDYWGQGTQVTVSS | high polyreactivity
QVQLVESGGGLVQAGGSLRLSGAASGSTFVIYAMGWSRQAPGKERELVAAIRLGGGSTYYADSVKGRFTISRDNAKNTVYLQMNSLKPEDTEVYYCAAEVDQWYYRGYVYWGQGTQVTVSS | high polyreactivity
QVQLVESGGGLVQAGGSLRLSGDASGSIFVWYDMGWYRQAPGKERELVATISLSGVSTYYADSVKGRFTISRDNAKKTVYLQMNSLKPEDNAVYYCAADFVEQGEDDYCGQGTQVTVSS | low polyreactivity
QVQLVESGGGLVQAGGSLRLSLAASGRTFEYYAMGWYRQAPGKERELVAAITSGGITYYADSVKGRFTISRDNAKNTVYLQMNSLKPEDTAVYYCNDRHRYYRYGYWGQGSQVTVSS | high polyreactivity
QVQLVESGGGLVQAGGSLRLSLLPPDSPSTTMLWDGIDRRLGKKGSWLPVFLPSGGTTYADSVKGRFTISRDNAKNTVYLQMNSLKPEDTAVYYCAASYYRTRWSWMYYWGQGTQVTVSS | low polyreactivity
QVQLVESGGGLVQAGGSLRLSRAASGVIIYRYAMGWYRQAPGKERELVAAISRSGGSTYYADSVKGRFTISRDNAMNTVYLQMNCLKPEDTAVYYCAADRGSLAPGNDYWGQGTQVTVSS | high polyreactivity
QVQLVESGGGLVQAGGSLRLSRAATGSIIASYAMGWYRQAPGKERELVSAISARGGSTYYADSVKGRFTISRDNAKNTVYLQMNSLKPEDTAVYSCAARHQQGRRISDYGYWGQGTQVTVSS | high polyreactivity
QVQLVESGGGLVQAGGSLRLSRPASGFTYIYSVMGWYRQAPGKERELVAAINGRGDRKYYADSVKGRFTISRDNAKNTGYLQMNSLKPEDTAVYYCNARTHTWGYSAKFDYWGQGTQVTVSS | high polyreactivity
QVQLVESGGGLVQAGGSLRLSSAASGFIFAIYSMGWYRQAPGKERELVAAISRSGGRTYYADSVKGRFTISRDIAKNTVYLQMISLKPEDTAVYYCNARFQYRGVKYYYWGKGTQVTVSS | high polyreactivity
QVQLVESGGGLVQAGGSLRLSSAASGFILEPNAMGWYRQAPGKERELVAAITTSGGTYYADSVKGRFTISRDNAKNTVYLQMNSLKPEDTAVYYCNAVSTDSWAYHGDYWGQGTQVTVSS | low polyreactivity
QVQLVESGGGLVQAGGSLRLSSAASGFILRTNAMGWYRQAPGKERELVAAISVSGGRTYYADSVKGRFTISRDNAKNTVYLQMNSLKPEDTAVDYCAARDSTKLLSGYTHYYWGQGTQVTVSS | high polyreactivity
QVQLVESGGGLVQAGGSLRLSSAASGFIYRGNVMGWYRQAPGKERELVAAITWSGGSTYYADSVKGRFTISRDNAKNTVYLQMNSLKPDDTAVYYCNADLYIYEWYPALHSNDYWGQGSQVTVSS | low polyreactivity
QVQLVESGGGLVQAGGSLRLSSAASGFTFVTYSKGWNRQATGKERELVAAISIRGGSTYADSVKGRFTISRDNAKNSVYLQMNSLKPEDTAVYSCATGRALEYNYWGQGTQVTVSS | low polyreactivity
QVQLVESGGGLVQAGGSLRLSSAASGFTLDWYVIGWYRKAPWKERELVAAISSSGGRTYYADSVKGRFTISRDNAKNTVYLQMNSLKPEDTAVYYCAARNIYGGYPYGYDYWGQGTQVTVSS | high polyreactivity
QVQLVESGGGLVQAGGSLRLSSAASGHHFRTNAMGWYRQAPGKERELVAVINIGGASTYYADSVKGRFTISRDNAKNTVNLQMNSLKPEDTAVYYCAQEFYDGYFPTFDYDYWGQGTQVTVSS | low polyreactivity
QVQLVESGGGLVQAGGSLRLSSAASGIIFTFNAMRWYRQAPGKEMELVAGISLGGSSTNYADSVKGRFTISRDNAKNTVYLQMNSLKPEDTAVYYCAAYVDIVGDYWVVGYYYWGQGTQVTVSS | low polyreactivity
